T1: peptide 40, CGGAEDS
T1 peptide: CGGAEDS

T2: peptide 67, CGGHEDA
T2 peptide: CGGHEDA

T3: peptide 64, CGGAEDT
T3 peptide: CGGAEDT

B1: peptide 39, CGGHEDT (immunogen peptide EPRB-39) (peptide)
peptide: CGGHEDT
notes: also called p39; p#39
B2: human AA amyloid (renal AA amyloid extract or tissue deposits) (other, UniProt P0DJI8 19-94, looked up)
chain: RSFFSFLGEAFDGARDMWRAYSDMREANYIGSDKYFHARGNYDAAKRGPGGAWAAEVITDARENIQRFFGHGAEDS
notes: Heterogeneous tissue-derived amyloid; also called human renal AA amyloid extract; human AA amyloid extract
B3: murine AA amyloid (AA fibrils, amyloid enhancing factor extract or tissue deposits) (other, mouse, UniProt P05367 20-94, looked up)
chain: GFFSFIGEAFQGAGDMWRAYTDMKEAGWKDGDKYFHARGNYDAAQRGPGGVWAAEKISDARESFQEFFGRGHEDT
notes: Heterogeneous tissue-derived amyloid; also called Mouse AA (AEF); murine AA fibrils
B4: peptide 41, GHEDTIADQE (peptide)
peptide: GHEDTIADQE
notes: also called p41; p#41
B5: murine monoclonal antibody 2A4 (antibody, V domains shown)
VH: EVQLVESGGRLVQPKGSLKLSCAASGFTFNTYAMYWIRQAPGKGLEWVARIRSKSNNYAIYYADSVKDRFTIFRDDSQSMLYLQMNNLKTEDTAMYYCVRPYSDSFAYWGQGTLVTVSA
VL: DVVMTQTPLSLPVSLGDQASISCRSSQSLVHSTGNTYLHWYLQKPGQSPKLLIYKVSNRFSGVPDRFSGSGSGTYFTLKISRVEAEDLGVYFCSQSTHVPFTFGGGTKLEIK
notes: Mouse IgG2b kappa; Used as hybridoma culture supernatant or protein A-purified mAb; also called mAb 2A4; 2A4.20.44.77
B6: murine monoclonal antibody 8G9 (antibody, mouse IgG2b, V domains shown)
VH: B5 VH
VL: B5 VL
notes: Mouse IgG2b kappa; also called mAb 8G9; 8G9.3.4.51.22
B7: murine monoclonal antibody 7D8 (antibody, mouse IgG2b, V domains shown)
VH: B5 VH
VL: B5 VL with Q27L
notes: Mouse IgG2b kappa; also called mAb 7D8; 7D8.29.19.47

Experiment [1] deals with B6. Description: immunohistochemistry with peptide inhibition, human ovarian tissue.
Experiment [2] addresses B5. Put plainly: immunohistochemistry, supernatant (1:25) preincubated with peptide.
For experiment [3], the target named is B7. Description: SPR competition, 7D8 with p39 at 1 µg/mL over immobilized Vλ6 Wil fibrils.
Experiment [4] concerns the target B7. Description: competition ELISA: human AA amyloid in solution against adsorbed mouse AA (AEF), mAb 7D8. The procedure: (§1) To determine the effect, if any, of potential denaturation when adsorbed to the surface of the microtiter well, the reactivity of the 2A4, 8G9 and […] was evaluated using a competition ELISA in which murine or human AA amyloid extract was used as a soluble competitor for the interaction of the mAbs with surface-bound AA extract.
(§2) In general, the murine AA (AEF) extract was a better competitor than the human AA (Table 6).

Experiment [5] addresses B6. Put plainly: competition ELISA: human AA amyloid in solution against adsorbed mouse AA (AEF), mAb 8G9. How it is done: as §1, §2
The target of experiment [6] is B5. Description: competition ELISA: human AA amyloid in solution against adsorbed mouse AA (AEF), mAb 2A4. How it is done:
as §1, §2

Experiment [7] concerns the target B5. Put plainly: competition ELISA: mouse AA (AEF) in solution against adsorbed human AA amyloid extract, mAb 2A4. The procedure: as §1, §2
Experiment [8] addresses B6. Put plainly: competition ELISA: mouse AA (AEF) in solution against adsorbed human AA amyloid extract, mAb 8G9. The procedure:
as §1, §2

Experiment [9] concerns the target B7. Put plainly: competition ELISA: mouse AA (AEF) in solution against adsorbed human AA amyloid extract, mAb 7D8. How it is done: as §1, §2
Experiment [10] deals with B5. Description: immunohistochemistry, preincubation of 2A4 supernatant with peptide before staining murine AA amyloid. An excerpt: The reactivity of supernatants from hybridomas expressing antibodies 2A4, 8G9 and 7D8 to murine AA splenic and hepatic amyloid deposits (the principal sites of amyloid deposition) was documented immunohistochemically. For these studies, sections of tissue harvested from a TRIAD mouse with extensive AA amyloid in the liver and spleen (as evidenced by green birefringent Congophilic deposits) were stained with the mAb-containing supernatants. All 3 bound to the hepatic and splenic amyloid. In contrast, there was no reactivity with culture supernatants derived from irrelevant hybridomas. The capability of the amyloid using 2A4, 8G9 and 7D8 to immunostain amyloid in fresh (unfixed), OCT-embedded murine liver and spleen was tested. There was evidence that the mAbs retained their ability to bind AA amyloid in the hepatic sinusoid. In addition, the antibody reactivity with splenic tissue was easier to interpret, and the perifollicular amyloid was intensely immunostained. […] In contrast, the p#41 peptide was ineffective.

The next experiment addresses T1, peptide 40, CGGAEDS. Put plainly: BIAcore analysis of peptide binding.
The next experiment has as its target T2, peptide 67, CGGHEDA. Put plainly: BIAcore analysis of peptide binding.
The target in a further experiment is T3, peptide 64, CGGAEDT. Description: BIAcore analysis of peptide binding.
For experiment [11], the target named is B2. Put plainly: ELISA, purified mAb on adsorbed human AA amyloid extract. How it is done: (§3) Protein Mr markers (Std) are, form top to bottom: 176, 119, 75, 49, 39, 25 and 19 kDa. The interaction of the purified mAbs with immunizing peptide p#39, control peptide (p#41), murine and human AA extracts were determined by ELISA as described above.
(§4) In contrast, even at the highest concentration of mAb used (100 nM) there was little detectable binding to the p#41 peptide (FIG. 33—Each point represents the mean±SE, (n=3 at each concentration)). […] The calculated EC50 values for the mAbs binding to mouse AA extract were essentially identical to those obtained when the p#39 peptide was used as the substrate (FIG. 34; Table 5). […] Because the EC50 value for 7D8 mAb binding was the lowest of the 3 antibodies tested, Applicants selected this reagent for in vivo co-localization and imaging studies. The 2 amino acid substitutions in the human SAA sequence with respect to the murine protein affected the EC50 values.

The target in experiment [12] is B1. Description: ELISA, purified mAb on adsorbed peptide 39.
The target in experiment [13] is B3. Description: ELISA, purified mAb on adsorbed mouse AA (AEF). The procedure: as §3, §4
In experiment [14] the target is B3. Put plainly: ELISA, hybridoma culture supernatant on murine AA (AEF). An excerpt:
The interaction of 2A4, 8G9 and 7D8 mAbs with AA amyloid was initially tested by ELISA and the data, given in FIG. 31, analyzed using SigmaPlot (SPSS Inc.). Each point represents the mean±SE (n=3). A culture supernatant from an irrelevant hybridoma was used as a control (Ctrl Culture Sup). […] (In addition, the immunohistochemical reactivity of the day 1 material was greater than the day 2 samples). […] Because of the low signal and high variability found with the culture supernatants and to determine more accurately the relative binding affinity of the mAbs for murine and human AA amyloid fibrils (as well as to provide material for in vivo biodistribution studies) it was necessary to isolate the mAbs by protein A affinity chromatography. The purity of the isolated mAbs was established SDS-PAGE using 10% acrylamide gels under reducing and non-reducing conditions (FIG. 32). Samples in lanes 1-4 treated with mercaptoethanol, lanes 5-9 without. Gel was stained with Coomassie blue: mAb 8G9, lanes 1 and 6; mAb 2A4, lanes 2 and 7; mAb 7D8, lanes 3 and 8; SP2/0 control supernatant, lanes 4 and 9; blank, lane 5. Protein Mr markers (Std) are, form top to bottom: 176, 119, 75, 49, 39, 25 and 19 kDa. The interaction of the purified mAbs with immunizing peptide p#39, control peptide (p#41), murine and human AA extracts were determined by ELISA as described above.

The experiment “peptide 41, GHEDTIADQE” addresses B4. Put plainly: ELISA, purified mAb on adsorbed peptide 41. How it is done: as §3, §4

Substitutions are numbered along the chain they refer to.

On to B1, for which the binding result in experiment [1] and in experiment [2] was “binds” each time. In [3], the “fold decrease in the extent of binding of 7D8 to Vλ6 Wil fibrils” value is over 2 fold.
Regarding B2, the IC50 is over 881 µg/mL in experiment [4], over 120 µg/mL in [5] and over 212 µg/mL in [6].
Take B3: the IC50 in [7] was 14.7 µg/mL; in experiment [8], 17.3 µg/mL; in experiment [9], 26.8 µg/mL.
As to B4, the binding result in experiment [10] was “no binding (tested: 50 µg/mL)”.
Consider B5, for which the binding result is on record as “binds” in the experiment with peptide 40, CGGAEDS; “binds” in the experiment with peptide 67, CGGHEDA; “binds” with peptide 64, CGGAEDT. For the same molecule, the EC50 was 26.4 nM in [11]; 3.4 nM in experiment [12]; 4.09 nM in [13]; over 100 nM with peptide 41, GHEDTIADQE. Besides, the “dilution of culture supernatant after which reactivity is absent” value (shortened to “dilution of culture supernatant”) in experiment [14] is ~64 dilution factor (1:x).
With B6, the EC50 in experiment [11] is 31.7 nM; in experiment [12], 4 nM; in experiment [13], 5.64 nM; with peptide 41, GHEDTIADQE, over 100 nM. Moreover, the “dilution of culture supernatant” value in experiment [14] was ~64 dilution factor (1:x).
Regarding B7, the binding result with peptide 40, CGGAEDS was “binds”; in the experiment with peptide 67, CGGHEDA, “binds”; with peptide 64, CGGAEDT, “binds”. Besides, the EC50 in [11] is 13.3 nM; in [12], 2.3 nM; in experiment [13], 1.84 nM; in the experiment with peptide 41, GHEDTIADQE, over 100 nM. The “dilution of culture supernatant” value in experiment [14] is ~64 dilution factor (1:x).
